Here are results for 41 sequences from the nanobody polyreactivity screen of Harvey et al. (2022).

A short description of the data set: yeast display, Sf9 membrane polyspecificity reagent, FACS + sequencing; frameworks hold sequencing errors. A digest of the protocol:
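Genes from sorted yeast were amplified by colony PCR, read by MiSeq 2 × 250 sequencing and filtered on CDR length. These cells carried a synthetic nanobody library in Saccharomyces cerevisiae BJ5465 and were sorted by FACS into low and high (top ~1%) gates on anti-HA and streptavidin fluorescence. Polyreactivity is labelled according to the gate of origin.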
Take “QVQLVESCGGLLQAGGSLRLSCAASGRTFTQYAMGCYRQAPGKERELVAAISWSDDITYYADSVKGRCTISRDIAQYTVYLQMNSLKPEDTAVYYCATEGYWGYDYDYWGQGTQVTVSS”: the “polyreactivity (PSR sort gate)” value is reported as “high polyreactivity”.

Turning to “QVQLVESCGGLVHAGGSLRLSCAASGRIIIFYAMGWYRQAPGKERELVASITSGASTYADSVKGRFTISRDNAKNTVYLQLNSLKPEDTAVYYCAKDYLDATPWFTWPTYSEFDYWGQGTQVTVSS”, the “polyreactivity (PSR sort gate)” value is “low polyreactivity”.

Turning to “QVQLVESCGGLVPAGGSLRLSCAASGSTFRYAMGWYRQTPGKERELVDAITRSGGSTYYAYSVKVRFTISRDKAKNTVYLQMNSLKPEDTAVYYCNARRGKGKSYGDYGYGYWGQGTQVTVSS”, the “polyreactivity (PSR sort gate)” value is recorded as “high polyreactivity”.

Consider “QVQLVESCGGLVQAGCSLRLSCAASGSIRYYPMGWYRQAPGKERELVAGITRNGGSTYYADSVKGRFTISRDNAKITVYLQMNSLKPEDTAVYYFAAGFTTRRGEYNYWGQGTQVTVSS”, for which the “polyreactivity (PSR sort gate)” value is “high polyreactivity”.

For “QVQLVESCGGLVQAGGSLRLICAASGITFYRNAMGGYRQAPWKERELVAAITRRGGSTYYADSVKGRFTISRDNAKNTVYCQMNIVKPEDTAVYYCAAQDATRGDGYWGQGTQVTVSS”, the “polyreactivity (PSR sort gate)” value is recorded as “high polyreactivity”.

Take “QVQLVESCGGLVQAGGSLRLSCAASAWYAIGWYRQAPGKEREFVAAITFSGSSTYYADSVKGRFTISRDNAKNTVYLQMNSLKPEDTAVYYCNADWWEWGQGTQVTVSS”: the “polyreactivity (PSR sort gate)” value is “low polyreactivity”.

Turning to “QVQLVESCGGLVQAGGSLRLSCAASGFTFGSYDMGWYRQAPGKERELVAAITWSGGSTYYADSVKGRFTISRDNAKNTVYLQMNSLKPEDTAVYYCNAYKFHMNYWGQGTQVTVSS”, the “polyreactivity (PSR sort gate)” value was “high polyreactivity”.

Consider “QVQLVESCGGLVQAGGSLRLSCAASGIIFPPYAMGWYRPAPGKERELVAAITRSGASTYYADSVKGRFTISRDNAKNTVYLQMNSLKPEDTAVYYCAVGVPGGYWKDYYWGQGTQVTVSS”, for which the “polyreactivity (PSR sort gate)” value is given as “high polyreactivity”.

Take “QVQLVESCGGLVQAGGSLRLSCAASGITFYGYAMGWYIQAPGKERELVARITISGRTNYADYVKGRFTISRDNAKNTVYLQMNSLKPEDTAVYYCATLVHWSYPYYYWGQGTQVTVSS”: the “polyreactivity (PSR sort gate)” value is “high polyreactivity”.

Turning to “QVQLVESCGGLVQAGGSLRLSCAASGLTFPKYAMGWYRQAPGKERELVARISYSGASTYYADSVKGRFTISRDNAKNTVYLQMNSLKPEDTAVYYCAARIYRVYYVHFAPYYYWGQGTQVTVSS”, the “polyreactivity (PSR sort gate)” value is on record as “high polyreactivity”.

As for “QVQLVESCGGLVQAGGSLRLSCAASGRIFLYNAMGWYRQAPGKERELVAVISRNGGSTYYADSVKGRFTISRDNAKNTVYLQMNSLKPEDTAVYYCNRYDRLAGRTTYDYWGQGSQVTVSS”, the “polyreactivity (PSR sort gate)” value is reported as “high polyreactivity”.

As to “QVQLVESCGGLVQAGGSLRLSCAASGRIFQTYAMGWYRQAPGKERELVASISWSGGSTYYADSVKGRFTILRDNAKNTVYLQMNSLKPEDTAVYYCAAVYYSTDYYFWYDYWGQGTQVTVSS”, the “polyreactivity (PSR sort gate)” value is on record as “low polyreactivity”.

With “QVQLVESCGGLVQAGGSLRLSCAASGRIFRWYAMGWYRQAPGKERELVARITSGGSTNYADSVKGRFTISRDNAKNTVYLQMNSLKPEDTAVYYCARDWGKSEYEYWGQGTQVTVSS”, the “polyreactivity (PSR sort gate)” value is “high polyreactivity”.

“QVQLVESCGGLVQAGGSLRLSCAASGRILSSYAMGGNRQAPGKERELVADITQRGGTTYYADSVKGRFSISRDNAKNTVYLQMNRLKPEDTAVYYCNAKSYRSYGGRGGVEYDYCGQGTQVTVSS”: the “polyreactivity (PSR sort gate)” value was “low polyreactivity”.

In the case of “QVQLVESCGGLVQAGGSLRLSCAASGRTFRSYTMGWYRQAPGKERELVASIRTSSGCTYYADSVKGRFTISRDNAKNSVYLKMNSLKPEDTAVYYCAKTLLYPWFRTVAVDYWGQGTQVTVSS”, the “polyreactivity (PSR sort gate)” value is reported as “low polyreactivity”.

Take “QVQLVESCGGLVQAGGSLRLSCAASGSIFRYNAMGWYRQAPWKEWELVAAIRSGSGTNYADSVKGRFTISRDNAKNTVFLQMNSLKPEDTAVYYCNAQPWYRTKYDYWGQGNQVTVSS”: the “polyreactivity (PSR sort gate)” value is reported as “low polyreactivity”.

On to “QVQLVESCGGLVQAGGSLRLSCAASGSTFWKYVMGWYRQAPGKDRELVAAISGRGGSTYYADSVKGRFTISRDNAKNTVYLQMNSLKPEDTAVYYCAKVHTRRKPYNSWGQGTQVTVSS”, for which the “polyreactivity (PSR sort gate)” value is given as “high polyreactivity”.

Regarding “QVQLVESCGGLVQAGGSLRLSCAGSGITIYSYAMGWYRQAPGKERELVAAITLTGGTTYYADSVKGRFTISRDNAKNTVYLQMNSLKPEDTAVYYCNADYGGGVDGTYKYYSEYDYWGQGTQVTVSS”, the “polyreactivity (PSR sort gate)” value is “low polyreactivity”.

As for “QVQLVESCGGLVQAGGSLRLSCASSGRNFPVKAMGWYRQAPGKERELVAGITWSGDGSTYYADSVKGRFTISRDNAKNTVYLLMNSLKPEDTAVYYCAARLNLQGRYDYWGQGTQVTVSS”, the “polyreactivity (PSR sort gate)” value was “low polyreactivity”.

As for “QVQLVESCGGLVQAGGSLRLSCPASGSIFHVNVMGCYRQEPGKERELVAAITYSGGATYYADSVKGRFTISRDNAKNTVYLQMNSLKPEDTAVYYCAAYPYWFFPHYDSWGQGTLVTVSS”, the “polyreactivity (PSR sort gate)” value was “low polyreactivity”.

As to “QVQLVESCGGLVQAGGSLRLSCSASGFIIPYYAMGWYRQAPGKERELVAAISYSGDSTYYADSVKGRFTISRDNAKNTVYLLMISLKPEDTAVYYCAADVEQYYPLLTFDYCGQGTQVTVSS”, the “polyreactivity (PSR sort gate)” value is on record as “low polyreactivity”.

Turning to “QVQLVESCGGLVQAGGSLRVSCAASGITFDGYAMGSYRQAPGKERELVAAITRRGGNTYYADSVKGRFTISRDNAKNTVHLQLNSQKPEDTAFYYCNAQVVHYRVSSVITYTIYDYSGQGTQVTVSS”, the “polyreactivity (PSR sort gate)” value is reported as “high polyreactivity”.

Take “QVQLVESCGGLVQAGGSLSLSCAASGRILYYYAMGWYRQAPGKERELVAAITSGGSTYADSVKGRFTISRDNAKNTVYLQMNSLKPEDTAVYYCNADYTVYDTEYDYWGQGTQVTVSS”: the “polyreactivity (PSR sort gate)” value was “low polyreactivity”.

Turning to “QVQLVESCGLLVQAGGSLRLSCAASGSIIVYNTMRCYRQAPGKERELVAAIYSSGGSTYYADSVKGRFTISRDNAKNTVYLQMNILKPEDTAVYYCAAVNGYQYPPYYYNGYDYWGQGTHVTVSS”, the “polyreactivity (PSR sort gate)” value is given as “low polyreactivity”.

Turning to “QVQLVESDGGLDQAGGSLRLSCPASGIIFGYYVMGRYRQAPGKERELVASITSGGSTNYADSVKGRFTISRDNAKNTVYLQMNSLKPEDTAVYYCAAEERTDTIPGWRYPHDYWGQGTQVTVSS”, the “polyreactivity (PSR sort gate)” value is recorded as “low polyreactivity”.

Take “QVQLVESEGGLVQAGGSLRLSCAASGRTYYAMGWYRQAPGKERELVAAISGTGASTYYADSVKGRFTISRDNAKNTVYLQMNSLKPEDTAVYYCAAEWFYYNTQQWFDYWGQGTQVPVSS”: the “polyreactivity (PSR sort gate)” value was “low polyreactivity”.

As for “QVQLVESEGGLVQAGGSLRLTCAASGFIYKGYAMGSYRQAPGKETELVAAISSSGTSTYYADSVKGRFTISRDNAKNTVYLQMNSLKPEDTAVYYCARVSKRTWSGYYYWGQGTQVTVSS”, the “polyreactivity (PSR sort gate)” value was “high polyreactivity”.

In the case of “QVQLVESGAALVQAGGSLRLSCAASGFIIAVYAMGWYRQAPGKERELVAAITRSGGSTYYADSVKGRFTISRDNAKNTFYLQMNSLKPEDSAVYYCAARNTQPASYGYGYWGLGTQVTVSS”, the “polyreactivity (PSR sort gate)” value is on record as “high polyreactivity”.

Turning to “QVQLVESGAALVQAGGSLSLSCAASGLTFYYYAMGWYRQAPGKERELVAAITSGGSTNYADSVKGRFTISRDNAKNTVFLQINSLKPEDTAVYYCAADPRYSFWGMYYWGLGTQVTVSS”, the “polyreactivity (PSR sort gate)” value was “low polyreactivity”.

Turning to “QVQLVESGAGIVQAGGSLRLSCAASGIIFNLYAMGWYRQAPGKERELVASISIGGSTNYADSVKGRFTISRDNAKNTVYLQMNSLKPEDTAVYYCAAALYEATYDANGLDMDYWGQGTQVTVSS”, the “polyreactivity (PSR sort gate)” value is “high polyreactivity”.

As for “QVQLVESGAGIVQAGGSLRLSCAASGRIFRYNAMGLYRQAPGKERELVAAITWSGVSTYYAHSVKGRFTISRDTAKITVFLQMNSLYPEDTGVYYCNGRRWPAWSSYDYWGQGTQVNVSS”, the “polyreactivity (PSR sort gate)” value is on record as “high polyreactivity”.

Turning to “QVQLVESGAGIVQAGGSLRLSCAASVSTFQSYAMGLYRPAPGKERELFAAISFSGGSTYYADSVKGRFTISRDNAKNTVYLQMNSLKPEDTAVYYCAKRGWVYFHGYDYWGQGTQVTVSS”, the “polyreactivity (PSR sort gate)” value is on record as “low polyreactivity”.

Turning to “QVQLVESGAGLFQAGGSLRISCAASGLIFDGYAMGWYRQATGKERELVAAITRSGGSTSYADSVKARFTISRDNAKNTVYLHMNSLKPEDTAVYYCAAKVHTFYYHYYSWGQGTQVTVSS”, the “polyreactivity (PSR sort gate)” value was “high polyreactivity”.

For “QVQLVESGAGLGQAGVSLRLSCAASGSTFPTYAMGWYRPAPGKERELVAAIDWSDGTTYYADSVKGRFTISRDNANNTVYLQMNSLKPDETAGYYCAASLSLSEYDYWGQATQVTVSS”, the “polyreactivity (PSR sort gate)” value is reported as “low polyreactivity”.

In the case of “QVQLVESGAGLLQAGGSLRLSCAASGITLRRNTMGWYRQAPGKERELVAAITRSGGSTYYADSVKGRVTISRDNAKNTVYLQINSLKPEVTAVYYCAEGPSYGGPSHVYWRQGTQVTVSS”, the “polyreactivity (PSR sort gate)” value is “high polyreactivity”.

As to “QVQLVESGAGLVQAGASLRLSCAASGRIFSRYVMGWYRQAPGKEREFVASITWSGSSTYYADSVKGRFTLSRDNAKNTVYVQMNSLKPEDTAVYYCAALGLLSPSPWGTHIYEYDSWGQGTQVTVSS”, the “polyreactivity (PSR sort gate)” value was “low polyreactivity”.

Consider “QVQLVESGAGLVQAGGRIRLSCAASGRTLYGNTMGWYRPAPWKERELVAAINWSGGRTRYADSVKGRFTNSRDNAKNTVYVEMNSVKPEDTAVYYCAATKRANHERFGSWGQGTQVTVSS”, for which the “polyreactivity (PSR sort gate)” value was “high polyreactivity”.

For “QVQLVESGAGLVQAGGRIRLTCAASRSILRGYAMGWYRQAPGKERELVAAITWNGGSTYYADSVKGRFTISRDNANNTVYLHMISLKPEDTAVYYFNRAIGPYSYPDNYWGQGTQVTVSS”, the “polyreactivity (PSR sort gate)” value was “high polyreactivity”.

On to “QVQLVESGAGLVQAGGRLRLSCAASGFTFRAYDMGWSRQAPAKERELVAAINISGGSTYYADSVKGRFTISRDNAKNTVYLQMNSLKPVDTAVYYCAAVPWVGTLYPRVGYWGQGTQGTVSS”, for which the “polyreactivity (PSR sort gate)” value is “low polyreactivity”.

In the case of “QVQLVESGAGLVQAGGRLRLSCAATGLTFYFYVMGWYRQAPGKERELVADISTSDDSTYYADSVKGRFTISRDNAKNTVYLQMNSLKPEDTSVYYCATATRTYSAWYEYDYWGQVTQVTVSS”, the “polyreactivity (PSR sort gate)” value is “low polyreactivity”.

“QVQLVESGAGLVQAGGSLRLCCAASGFIFYLNTMGWYRQAPGKERELVAGITWRGGTTYYADSVKGRFTISRDNAKNSVYLQMNSLKPEDTAVYYCAARRYSRPYSYGFYYWGQGTLVTVSS”: the “polyreactivity (PSR sort gate)” value is on record as “high polyreactivity”.
